Results from US20150218248A1.

biological target: HLA-A2 molecule; assay: HLA class I stabilization assay, RMA-S/A2 cells, peptide 10 µg/ml, flow cytometry with BB7.2

HLA binding capability (%) (MFI increase) | Binder
267% | MQLMPFGCLL [T790M-5]
31.2% | LIMQLMPFGCL [T790M-7]
69.3% | IMQLMPFGCLL [T790M-8]
